The experiment has as its target Bombyx mori ribosomal protein RPL12 (Bombyx mori (endogenous in BmN)). The experiment can be described thus: Western blot of total cell proteins; total proteins of BmN cells (mock, control siRNA, BmRPL12 siRNA), anti-RPL12 polyclonal antibody; monomer and dimer bands. Background: Immunoblotting shows a protein as a band on a membrane.

Usually stoichiometry N stands for a count of units in the complex or per binding partner. Substance “Bombyx mori ribosomal protein RPL12 (natural protein)” yielded a stoichiometry N of 2.

Source of the values: paper PMC11856044.
